Source: PMC2193136

Key:
[1] = target: HLA-DR2 (DRA1*0101/DRB1*1501) molecules, detergent-solubilized, purified from S2 cells (human); assay: peptide binding inhibition assay
[2] = target: HLA-DR2 (DRA1*0101/DRB1*1501) molecules, detergent-solubilized, purified from S2 cells (human); assay: competition peptide-binding assay

For “HLA-DQw6 peptide corresponding to residues 43–58”, which IC50 [1] is on record?
The IC50 was 70 nM.

For MBP 85–96 truncated peptide, which IC50 [2] is on record?
Its IC50 is 20 nM.

For MBP 85–97 truncated peptide, which IC50 [2] is on record?
The IC50 was 15 nM.

MBP 85–98 truncated peptide was tested. Which IC50 [2] did it give?
Its IC50 is 4 nM.

For MBP 85–99 analogue 85 (E→A) (peptide), which IC50 [2] is on record?
The IC50 was 7 nM.

Which IC50 [2] does the source give for MBP 85–99 analogue 86 (N→A) (peptide) here?
Its IC50 is 7 nM.

MBP 85–99 analogue 87 (P→A) (peptide) was tested. Which IC50 [2] did it give?
Its IC50 is 10 nM.

For MBP 85–99 analogue 88 (V→A) (peptide), which IC50 [2] is on record?
The IC50 was 10 nM.

Which IC50 [2] does the source give for MBP 85–99 analogue 89 (V→A) (peptide) here?
Its IC50 is 50 nM.

With MBP 85–99 analogue 90 (H→A) (peptide) as the substance, how does the IC50 [2] read?
The IC50 was 10 nM.

For MBP 85–99 analogue 91 (F→A) (peptide), which IC50 [2] is on record?
Its IC50 is 10 nM.

With MBP 85–99 analogue 92 (F→Y) (peptide) as the substance, how does the IC50 [2] read?
The IC50 was 12 nM.

With MBP 85–99 analogue 93 (K→A) (peptide) as the substance, how does the IC50 [2] read?
The IC50 was 4 nM.

For MBP 85–99 analogue 94 (N→A) (peptide), which IC50 [2] is on record?
The IC50 was 4 nM.

How did the IC50 [2] turn out when MBP 85–99 analogue 95 (I→A) (peptide) was run?
The IC50 was 4 nM.

With MBP 85–99 analogue 96 (V→A) (peptide) as the substance, how does the IC50 [2] read?
Its IC50 is 4 nM.

For MBP 85–99 analogue 97 (T→A) (peptide), which IC50 [2] is on record?
The IC50 was 4 nM.

Which IC50 [2] does the source give for MBP 85–99 analogue 98 (P→A) (peptide) here?
The IC50 was 5 nM.

With MBP 85–99 analogue 99 (R→A) (peptide) as the substance, how does the IC50 [2] read?
The IC50 was 5 nM.

With MBP 85–99 peptide as the substance, how does the IC50 [2] read?
The IC50 was 5 nM.

For “MBP 86–99 truncated peptide (row label printed as (85–99))”, which IC50 [2] is on record?
The IC50 was 3 nM.

For MBP 87–99 truncated peptide, which IC50 [2] is on record?
The IC50 was 5 nM.

MBP 88–99 truncated peptide was tested. Which IC50 [2] did it give?
Its IC50 is 30 nM.

Which IC50 [1] does the source give for human PLP peptide PLP 40–60 here?
Its IC50 is 200 nM.

With human PLP peptide PLP 95–116 as the substance, how does the IC50 [1] read?
The IC50 was 1480 nM.
